Columns and labels:
[1] = biological target: Max-Max 14 (S-aryl linked covalent dimer) (UniProt P61244;P61244 SEQ:1-80,SEQ:1-80); test: BLI; details: protein: synthetic; tags: chemically synthesized; C-terminal cysteines crosslinked by dithiobenzene; chain copies: 2 stated
[2] = biological target: Omomyc-Max 17 (S-aryl linked covalent dimer) (UniProt P01106;P61244 SEQ:1-90,SEQ:1-80); test: EMSA; details: protein: synthetic; tags: chemically synthesized; C-terminal cysteines crosslinked by dithiobenzene
[3] = biological target: Myc-Max 16 (S-aryl linked covalent dimer) (UniProt P01106;P61244 SEQ:1-82,SEQ:1-80); test: EMSA; details: protein: synthetic; tags: chemically synthesized; C-terminal cysteines crosslinked by dithiobenzene
[4] = biological target: Myc-Myc 13 (S-aryl linked covalent dimer) (UniProt P01106;P01106 SEQ:1-82,SEQ:1-82); test: EMSA; negative control; details: protein: synthetic; tags: chemically synthesized; C-terminal cysteines crosslinked by dithiobenzene; chain copies: 2 stated
[5] = biological target: Omomyc analog 12 (C-terminal Cys), non-covalent homodimer (UniProt P01106 SEQ:1-90); test: EMSA; Omomyc+Omomyc; details: protein: synthetic; tags: chemically synthesized; C-terminal cysteine added; chain copies: 2 stated
Description: (§1) The three synthetic analogs 10, 11, and 12 can form non-covalent dimers and bind to the target E-box DNA (5′-[…]-3′). […] However, it is not possible to determine which dimeric species form in a solution containing two different monomers. For instance, upon mixing Max (11) and Omomyc (12), three different dimers (Max/Max, Omomyc/Omomyc and Max/Omomyc) can form and potentially bind to DNA (FIG. 18). To assess the activity of these protein complexes in a reliable manner, access to well-defined covalent protein dimers is critical.

[6] = biological target: Max analog 11 (C-terminal Cys), non-covalent homodimer (UniProt P61244 SEQ:1-80); test: EMSA; Max+Max; details: protein: synthetic; tags: chemically synthesized; C-terminal cysteine added; chain copies: 2 stated
Description: as §1

[7] = biological target: MYC monomer (bHLHZ, Example 2) (UniProt P01106 SEQ:1-82); test: EMSA; negative control, 4 uM protein, 1 uM DNA; details: protein: synthetic; tags: chemically synthesized by automated flow peptide synthesis
Method: (§2) Biophysical characterization confirmed the folding and DNA-binding activity of the four covalent protein dimers 3, 4, 5, and 6. The dimers were first analyzed by sodium dodecyl sulfate polyacrylamide gel electrophoresis (SDS-PAGE). […] Next an electrophoretic mobility shift assay (EMSA) was performed to determine the dimers' DNA binding activity. At a DNA concentration of 1 μM and protein concentration of 2 μM, all dimers formed complexes with the E-Box DNA, as observed by the shift retardation on the gel.
(§3) The E-Box DNA probe (2 μM in binding buffer) was heated to 95° C. for 5 minutes and then let cool down to room temperature over 15 minutes for double-strand annealing. Protein dimer (4 μM in binding buffer: MES 10 mM, KCl 150 mM, MgCl₂ 1 mM, TCEP 1 mM, glycerol 10%, pH=6.5) was added to the DNA (final concentrations: 2 μM protein and 1 μM DNA) and the mixture was incubated for 1 h at room temperature. During the incubation, a 10% polyacrylamide gel was prerun (1 h, 4° C., 100 V) in 1× TBE buffer. After that time, DNA protein mixture (20 μL) was mixed with 6× DNA Loading Dye (4 μL)) and loaded on the gel, which was run at 75 V, for 90 min at 4° C. The gel was washed with water for 20 seconds and then stained with 0.02% ethidium bromide in 1xTBE buffer for 15 min at room temperature. Bands were visualized on a Biorad Gel imager.

[8] = biological target: Omomyc-Omomyc covalent homodimer 4 (lysine-linked) (UniProt P01106;P01106 SEQ:1-90,SEQ:1-90); test: EMSA; 2 uM protein, 1 uM DNA; MES 10 mM, KCl 150 mM, MgCl2 1 mM, pH 6.5, RT; details: protein: synthetic; tags: chemically synthesized; C-termini linked via Lys-betaAla-Lys linker; chain copies: 2 stated
Method: as §2, §3

[9] = biological target: Omomyc-MAX covalent heterodimer 6 (lysine-linked) (UniProt P01106;P61244 SEQ:1-90,SEQ:1-80); test: as above; details: protein: synthetic; tags: chemically synthesized; C-termini linked via Lys-betaAla-Lys linker; Boc-Gly coupled as last residue of MAX during synthesis
Method: as §2, §3

[10] = biological target: MYC-MAX covalent heterodimer 5 (lysine-linked) (UniProt P01106;P61244 SEQ:1-82,SEQ:1-80); test: as above; details: protein: synthetic; tags: chemically synthesized; C-termini linked via Lys-betaAla-Lys linker; Boc-Gly coupled as last residue of MAX during synthesis
Method: as §2, §3

[11] = biological target: Myc analog 10 (C-terminal Cys) (UniProt P01106 SEQ:1-82); test: EMSA; Myc alone cannot homodimerize; details: protein: synthetic; tags: chemically synthesized; C-terminal cysteine added
Description: as §1

B1: E-box DNA probe (22 bp) (dsDNA)
DNA 1: CCGGCTGACACGTGGTATTAAT
DNA 2: ATTAATACCACGTGTCAGCCGG
[1]
  Kd: 50 nM
[2]
  binding result: binds
[3]
  binding result: binds
[4]
  binding result: no binding
[5]
  binding result: binds
[6]
  binding result: binds
[7]
  binding result: no binding
[8]
  binding result: binds
[9]
  binding result: binds
[10]
  binding result: binds
[11]
  binding result: no binding

Reference: US20240336649, “SYNTHESIS OF COVALENT PROTEIN DIMERS THAT CAN INHIBIT MYC-DRIVEN TRANSCRIPTION” (MASSACHUSETTS INSTITUTE OF TECHNOLOGY, published 2024)
